Data as given in a protein production outcome set (Wang et al. 2014).

Assay: label from the status in PepcDB records

In the case of “MKKKKYLKWWIAAVSAVFIVGAGIFVYTQYKAAQTSGDVATKDGTSASASDITWNGKTYSYNEHLSNFLFLGIDTKEKAETKTGQADAGQADALYLLSWNRLEGDITVISIPRDTMTQIETFGPGGKSLGKSKDHISLSYAYGDGGYESCELAENAVSELLYGLPIDGYCALNMDGLPVLTDSVGGVTVTVPNDSLAEVDPGYAKGAVVTLKGEDTEQFVRYRNTEISQSAIARMERQQEYIRAFGEALKKASADKALVTDLYKAIEPYMVTNMGKSRFVDLTESVSEGKKVNRWTIPGEGIQGKEYDEYVVDDDALYEKTVETFYVEKK”, the protein production is reported as “failed”.
